# B1: VIS410 (antibody, V domains shown)
# VH: QVQLLETGGGLVKPGQSLKLSCAASGFTFTSYAMHWVRQPPGKGLEWVAVVSYDGNYKYYADSVQGRFTISRDNSKNTLYLQMNSLRAEDTAVYYCAKDSRLRSLLYFEWLSQGYFNPWGQGTTLTVSS
# VL: DIQMTQSPSSLSASVGDRVTITCRSSQSITFDYKNYLAWYQQKPGKAPKLLIYWGSYLESGVPSRFSGSGSGTDFTLTISSLQPEDFATYYCQQHYRTPPSFGQGTKVEIK
# Experiments:
# Assay in all cases: cell-based or functional assay
# [1] = target: hemagglutinin (HA) of influenza A/South Africa/80521/2017 (H3N2) (influenza A virus (H3N2))
# [2] = target: T1, hemagglutinin (HA) of influenza A/PR/8/1934 (H1N1) (influenza A virus (H1N1), UniProt P03452 18-565)
# T1 sequence (P03452 18-565 limits assumed): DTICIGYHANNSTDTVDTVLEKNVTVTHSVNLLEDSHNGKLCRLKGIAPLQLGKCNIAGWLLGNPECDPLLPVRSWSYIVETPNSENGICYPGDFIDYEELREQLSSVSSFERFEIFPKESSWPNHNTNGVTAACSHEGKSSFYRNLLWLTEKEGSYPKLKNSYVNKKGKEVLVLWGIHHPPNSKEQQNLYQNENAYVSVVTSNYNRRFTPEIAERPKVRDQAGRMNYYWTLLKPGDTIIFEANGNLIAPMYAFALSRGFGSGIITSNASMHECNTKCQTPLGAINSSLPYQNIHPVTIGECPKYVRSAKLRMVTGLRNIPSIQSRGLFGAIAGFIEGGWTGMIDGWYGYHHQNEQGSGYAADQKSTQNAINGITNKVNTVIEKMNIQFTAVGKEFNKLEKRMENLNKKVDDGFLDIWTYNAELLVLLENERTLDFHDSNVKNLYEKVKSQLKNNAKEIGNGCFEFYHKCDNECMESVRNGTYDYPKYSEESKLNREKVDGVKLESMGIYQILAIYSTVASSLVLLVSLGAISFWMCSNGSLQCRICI
# [3] = target: hemagglutinin (HA) of influenza A/South Africa/80836/2017 (H1N1) (influenza A virus (H1N1))
# [4] = target: hemagglutinin (HA) of influenza A/South Africa/80839/2017 (H3N2) (influenza A virus (H3N2))
# [5] = target: hemagglutinin (HA) of influenza A/South Africa/80860/2017 (H1N1) (influenza A virus (H1N1))
# [6] = target: hemagglutinin (HA) of influenza A/South Africa/80837/2017 (H1N1) (influenza A virus (H1N1))
# [7] = target: hemagglutinin (HA) of influenza A/South Africa/81313/2017 (H3N2) (influenza A virus (H3N2))
# [8] = target: hemagglutinin (HA) of influenza A/South Africa/80308/2017 (H3N2) (influenza A virus (H3N2))
# [9] = target: hemagglutinin (HA) of influenza A/South Africa/80811/2017 (H1N1) (influenza A virus (H1N1))
# [10] = target: hemagglutinin (HA) of influenza A/South Africa/81130/2017 (H3N2) (influenza A virus (H3N2))
# [11] = target: hemagglutinin (HA) of influenza A/South Africa/80919/2017 (H3N2) (influenza A virus (H3N2))
# [12] = target: hemagglutinin (HA) of influenza A/South Africa/80316/2017 (H3N2) (influenza A virus (H3N2))
# [13] = target: hemagglutinin (HA) of influenza A/South Africa/80714/2017 (H3N2) (influenza A virus (H3N2))
# [14] = target: hemagglutinin (HA) of influenza A/South Africa/0808006/2018 (H1N1) (influenza A virus (H1N1))
# [15] = target: T1, hemagglutinin (HA) of influenza …; remark: listed apart in the source
binder,measurement,setting,value
B1,"IC50, phenotypic IC50 assay (virus infection of MDCK cells)",[1],1.09 µg/mL
same,"IC50 (µg/mL), baloxavir-sensitive A/Puerto Rico/8/1934_H1N1 WT virus",[2],0.3 µg/mL
same,"IC50, phenotypic IC50 assay (virus infection of MDCK cells)",[3],0.73 µg/mL
same,"IC50, phenotypic IC50 assay (virus infection of MDCK cells)",[4],0.41 µg/mL
same,"IC50, phenotypic IC50 assay (virus infection of MDCK cells)",[5],0.26 µg/mL
same,"IC50, phenotypic IC50 assay (virus infection of MDCK cells)",[6],0.25 µg/mL
same,"IC50, phenotypic IC50 assay (virus infection of MDCK cells)",[7],1.38 µg/mL
same,"IC50, phenotypic IC50 assay (virus infection of MDCK cells)",[8],0.91 µg/mL
same,"IC50, phenotypic IC50 assay (virus infection of MDCK cells)",[9],0.38 µg/mL
same,"IC50, phenotypic IC50 assay (virus infection of MDCK cells)",[10],1 µg/mL
same,"IC50, phenotypic IC50 assay (virus infection of MDCK cells)",[11],2.55 µg/mL
same,"IC50, phenotypic IC50 assay (virus infection of MDCK cells)",[12],0.57 µg/mL
same,"IC50, phenotypic IC50 assay (virus infection of MDCK cells)",[13],0.13 µg/mL
same,"IC50, phenotypic IC50 assay (virus infection of MDCK cells)",[14],0.42 µg/mL
same,"EC50, antiviral activity against wild-type A/PR/8/1934 (H1N1) virus",[15],7.4 nM
